B1: TET3 peptide 1705-1720 (methylcytosine dioxygenase TET3), 16-mer library wild type / USP8 rhodanese domain (ubiquitin carboxyl-terminal hydrolase 8, residues 174-317) (parent)
chain 1: GLALWEAKMKQLAERA
chain 2: KCETKEKGAITAKELYTMMTDKNISLIIMDARRMQDYQDSCILHSLSVPEEAISPGVTASWIEAHLPDDSKDTWKKRGNVEYVVLLDWFSSAKDLQIGTTLRSLKDALFKWESKTVLRNEPLVLEGGYENWLLCYPQYTTNAKV
B2: KIAA1614 peptide 568-583 (uncharacterized protein KIAA1614), 16-mer library wild type / USP8 rhodanese domain (ubiquitin carboxyl-terminal hydrolase 8, residues 174-317) (parent)
chain 1: GMERVLGGLSSPLRLL
chain 2: B1 chain 2

Variants of: B1
Experiment: peptide-phage display deep mutational scan (M13, 16-mer library, displayed with a C-terminal GGGSG linker encoded by the 3' flank) selected against the GST-tagged USP8 rhodanese domain, four rounds; NGS counts summed over selection …
Conditions: with USP8 rhodanese domain (ubiquitin carboxyl-terminal hydrolase 8, residues 174-317), 10 µg GST-bait on MaxiSorp, pre-cleared on GST, 2 h at 4 °C, five washes with 0.05% Tween 20 in PBS, not graded, scale: average over two replicas of the peptide's fractional NGS count

Variant	screen value
chain 1 A3D	0.0209
chain 1 A3E	0.064
chain 1 A3F	4.33e-06
chain 1 A3G	3.88e-05
chain 1 A3H	8.66e-06
chain 1 A3I	4.33e-06
chain 1 A3K	1.3e-05
chain 1 A3L	4.33e-06
chain 1 A3M	0.00023
chain 1 A3P	0.000452
chain 1 A3Q	0.00817
chain 1 A3S	0.000145
chain 1 A3T	5.18e-05
chain 1 A3V	0.000173
chain 1 A3W	9.64e-05
chain 1 A3Y	0.000177
chain 1 A7E	8.66e-06
chain 1 A7F	4.33e-06
chain 1 A7G	7.04e-05
chain 1 A7H	0.00234
chain 1 A7I	3.9e-05
chain 1 A7L	4.33e-06
chain 1 A7M	0.000234
chain 1 A7N	0.000194

Variant	screen value
chain 1 A7P	5.46e-05
chain 1 A7Q	0.00623
chain 1 A7R	4.33e-06
chain 1 A7S	2.3e-05
chain 1 A7T	0.000404
chain 1 A7V	5.18e-05
chain 1 A7W	0.0002
chain 1 A7Y	2.3e-05
chain 1 A13D	2.6e-05
chain 1 A13E	0.0925
chain 1 A13G	0.0144
chain 1 A13H	0.0027
chain 1 A13I	1.3e-05
chain 1 A13K	2.6e-05
chain 1 A13L	0.000154
chain 1 A13M	5.89e-05
chain 1 A13N	0.000273
chain 1 A13P	5.48e-05
chain 1 A13Q	0.00219
chain 1 A13T	3.6e-05
chain 1 A13V	0.0163
chain 1 A13Y	2.45e-05
chain 1 A16D	0.027
chain 1 A16E	0.00115

Variant	screen value
chain 1 A16F	4.33e-06
chain 1 A16G	6.5e-05
chain 1 A16H	2.3e-05
chain 1 A16I	0.00523
chain 1 A16L	6.61e-05
chain 1 A16M	0.000143
chain 1 A16N	0.00504
chain 1 A16P	0.0179
chain 1 A16Q	0.00138
chain 1 A16R	8.66e-06
chain 1 A16S	0.00296
chain 1 A16T	0.00395
chain 1 A16V	0.00901
chain 1 A16Y	1.58e-05
chain 1 E6A	8.66e-06
chain 1 E6D	9.38e-05
chain 1 E6F	8.66e-06
chain 1 E6G	0.000196
chain 1 E6H	3.9e-05
chain 1 E6S	0.000221
chain 1 E6V	1.15e-05
chain 1 E6Y	1.15e-05
chain 1 E14A	4.18e-05
chain 1 E14D	2.73e-05

Variant	screen value
chain 1 E14F	0.000199
chain 1 E14G	0.000341
chain 1 E14I	4.33e-06
chain 1 E14L	0.000367
chain 1 E14M	0.000615
chain 1 E14N	6.5e-05
chain 1 E14Q	4.03e-05
chain 1 E14S	7.32e-05
chain 1 E14T	8.66e-06
chain 1 E14V	0.000238
chain 1 E14W	4.33e-06
chain 1 E14Y	2.3e-05
chain 1 G1E	6.35e-05
chain 1 G1K	2.01e-05
chain 1 G1N	4.46e-05
chain 1 G1Q	8.66e-06
chain 1 G1R	4.33e-06
chain 1 K8E	4.33e-06
chain 1 K8N	2.3e-05
chain 1 K8P	1.73e-05
chain 1 K8Q	4.33e-06
chain 1 K10A	0.0149
chain 1 K10D	0.000192
chain 1 K10E	0.0209

Variant	screen value
chain 1 K10F	8.06e-05
chain 1 K10G	0.00596
chain 1 K10H	0.0117
chain 1 K10I	0.00024
chain 1 K10L	0.000183
chain 1 K10M	1.15e-05
chain 1 K10N	0.0933
chain 1 K10P	8.66e-06
chain 1 K10Q	0.000152
chain 1 K10R	0.00248
chain 1 K10S	0.0345
chain 1 K10T	0.00016
chain 1 K10V	0.00689
chain 1 K10W	0.00214
chain 1 K10Y	0.000154
chain 1 L2A	4.33e-06
chain 1 L2F	4.18e-05
chain 1 L2H	2.73e-05
chain 1 L2I	0.00377
chain 1 L2K	1.3e-05
chain 1 L2M	0.000603
chain 1 L2P	4.33e-06
chain 1 L2R	4.33e-06
chain 1 L2S	1.15e-05

Variant	screen value
chain 1 L2T	4.33e-06
chain 1 L2V	0.00764
chain 1 L2W	0.000401
chain 1 L2Y	1.73e-05
chain 1 L4A	9.18e-05
chain 1 L4D	4.33e-06
chain 1 L4E	9.1e-05
chain 1 L4F	0.000225
chain 1 L4G	2.3e-05
chain 1 L4H	1.3e-05
chain 1 L4I	0.211
chain 1 L4K	4.33e-06
chain 1 L4M	0.0286
chain 1 L4N	0.00113
chain 1 L4P	4.33e-06
chain 1 L4Q	0.00044
chain 1 L4R	0.000374
chain 1 L4S	4.74e-05
chain 1 L4T	0.000596
chain 1 L4V	0.00974

The remaining lines, values ahead:

screen value	Variant
1.15e-05	chain 1 L12A
8.66e-06	chain 1 L12F
4.33e-06	chain 1 L12I
4.33e-06	chain 1 L12K
4.33e-06	chain 1 L12M
1.15e-05	chain 1 L12R
4.33e-06	chain 1 L12S
0.00064	chain 1 M9A
1.3e-05	chain 1 M9F
3.75e-05	chain 1 M9H
4.74e-05	chain 1 M9I
4.33e-06	chain 1 M9L
1.73e-05	chain 1 M9N
2.45e-05	chain 1 M9P
3.16e-05	chain 1 M9Q
0.000108	chain 1 M9R
0.0119	chain 1 M9S
0.000181	chain 1 M9T
1.3e-05	chain 1 M9V
0.00223	chain 1 M9W
3.9e-05	chain 1 M9Y
3.6e-05	chain 1 Q11A

screen value	Variant
0.00724	chain 1 Q11D
4.33e-06	chain 1 Q11F
0.000837	chain 1 Q11G
0.000267	chain 1 Q11H
8.66e-06	chain 1 Q11I
1.15e-05	chain 1 Q11K
0.0108	chain 1 Q11L
0.000201	chain 1 Q11M
0.00283	chain 1 Q11N
0.000162	chain 1 Q11R
0.00344	chain 1 Q11S
0.000142	chain 1 Q11T
8.66e-06	chain 1 Q11V
2.17e-05	chain 1 Q11W
8.66e-05	chain 1 Q11Y
4.33e-06	chain 1 R15A
7.21e-05	chain 1 R15D
0.00031	chain 1 R15E
2.3e-05	chain 1 R15F
0.000816	chain 1 R15G
0.000187	chain 1 R15H
0.000386	chain 1 R15K

screen value	Variant
0.000427	chain 1 R15L
0.000392	chain 1 R15M
8.62e-05	chain 1 R15N
0.0867	chain 1 R15P
0.0216	chain 1 R15Q
0.0149	chain 1 R15S
0.00935	chain 1 R15T
2.45e-05	chain 1 R15V
0.000125	chain 1 R15W
0.0485	chain 1 R15Y
4.33e-06	chain 1 W5F
7.36e-05	chain 1 W5G
4.33e-06	chain 1 W5H
8.66e-06	chain 1 W5K
1.15e-05	chain 1 W5L
0.00029	chain 1 W5M
4.33e-05	chain 1 W5P
1.58e-05	chain 1 W5R
7.78e-05	chain 1 W5S
4.33e-06	chain 1 W5T
4.33e-06	chain 1 W5V

Variants of: B2
Experiment: as above
Conditions: with USP8 rhodanese domain (ubiquitin carboxyl-terminal hydrolase 8, residues 174-317), 10 µg GST-bait on MaxiSorp, pre-cleared on GST, 2 h at 4 °C, five washes with 0.05% Tween 20 in PBS, not graded, scale: average over two replicas of the peptide's fractional NGS count

Variant	screen value
chain 1 E3A	0.000229
chain 1 E3D	0.00356
chain 1 E3F	6.32e-06
chain 1 E3H	0.00012
chain 1 E3L	6.32e-05
chain 1 E3N	0.000897
chain 1 E3P	9.48e-05
chain 1 E3Q	0.00108
chain 1 E3S	0.000223
chain 1 E3T	8.85e-05
chain 1 E3V	1.26e-05
chain 1 E3W	0.000133
chain 1 E3Y	0.000118
chain 1 G1A	0.0197
chain 1 G1D	0.00131
chain 1 G1E	0.000708
chain 1 G1F	6.32e-06
chain 1 G1H	0.00494
chain 1 G1I	8.36e-05
chain 1 G1K	0.000202

Variant	screen value
chain 1 G1L	3.16e-05
chain 1 G1M	0.000324
chain 1 G1N	0.0012
chain 1 G1P	0.00104
chain 1 G1Q	0.0088
chain 1 G1R	0.000532
chain 1 G1S	0.00457
chain 1 G1T	0.00523
chain 1 G1V	3.79e-05
chain 1 G1W	0.00137
chain 1 G1Y	0.000202
chain 1 G7A	0.00275
chain 1 G7D	0.0412
chain 1 G7E	0.00446
chain 1 G7F	0.00722
chain 1 G7H	0.000322
chain 1 G7I	0.000523
chain 1 G7K	1.55e-05
chain 1 G7L	0.000596
chain 1 G7M	0.00706

Variant	screen value
chain 1 G7N	0.00247
chain 1 G7P	1.55e-05
chain 1 G7Q	0.00689
chain 1 G7R	0.00011
chain 1 G7S	0.000797
chain 1 G7T	0.0883
chain 1 G7V	0.0068
chain 1 G7W	6.32e-06
chain 1 G7Y	0.000924
chain 1 G8D	6.32e-06
chain 1 G8N	1.26e-05
chain 1 G8T	6.32e-06
chain 1 G8V	0.000138
chain 1 L6F	6.32e-06
chain 1 L6G	6.88e-05
chain 1 L6I	0.00654
chain 1 L6N	6.32e-06
chain 1 L6P	0.000164
chain 1 L6Q	1.9e-05

Next, values leading:

screen value	Variant
6.32e-06	chain 1 L6S
5.05e-05	chain 1 L6T
6.32e-06	chain 1 L6V
0.00126	chain 1 L9A
0.0392	chain 1 L9D
0.164	chain 1 L9E
3.79e-05	chain 1 L9F
9.76e-05	chain 1 L9G
4.07e-05	chain 1 L9H
0.000484	chain 1 L9I
9.69e-05	chain 1 L9K
9.62e-05	chain 1 L9M
0.00178	chain 1 L9N
0.000947	chain 1 L9P
0.0169	chain 1 L9Q
1.26e-05	chain 1 L9R
0.000763	chain 1 L9S
0.0151	chain 1 L9T
0.00586	chain 1 L9V
0.000202	chain 1 L9W
6.18e-05	chain 1 L9Y
4.42e-05	chain 1 L13A
3.72e-05	chain 1 L13D
0.000467	chain 1 L13E

screen value	Variant
3.09e-05	chain 1 L13F
6.32e-05	chain 1 L13G
2.53e-05	chain 1 L13H
6.32e-06	chain 1 L13K
0.000258	chain 1 L13M
6.32e-06	chain 1 L13N
1.26e-05	chain 1 L13P
1.26e-05	chain 1 L13R
0.00179	chain 1 L13S
0.00145	chain 1 L13T
0.000364	chain 1 L13V
0.000724	chain 1 L13W
0.000122	chain 1 L13Y
1.26e-05	chain 1 L15A
1.26e-05	chain 1 L15G
6.32e-06	chain 1 L15I
1.26e-05	chain 1 L15N
1.26e-05	chain 1 L15V
1.55e-05	chain 1 L16A
2.53e-05	chain 1 L16F
6.32e-06	chain 1 L16G
0.000246	chain 1 L16H
0.000468	chain 1 L16I
0.00379	chain 1 L16M

screen value	Variant
6.32e-06	chain 1 L16N
1.26e-05	chain 1 L16P
7.58e-05	chain 1 L16Q
1.55e-05	chain 1 L16T
5.05e-05	chain 1 L16V
0.00538	chain 1 M2A
0.0101	chain 1 M2D
0.0668	chain 1 M2E
0.00131	chain 1 M2F
0.0456	chain 1 M2G
0.0157	chain 1 M2H
0.00918	chain 1 M2I
0.00296	chain 1 M2K
0.00111	chain 1 M2L
0.00694	chain 1 M2N
0.0198	chain 1 M2P
0.00237	chain 1 M2Q
0.00145	chain 1 M2R
0.00782	chain 1 M2S
0.0119	chain 1 M2T
0.0166	chain 1 M2V
0.000604	chain 1 M2W

— PMC12057046, “Elucidation of short linear motif-based interactions of the MIT and rhodanese domains of the ubiquitin-specific protease 8” (Biology Direct, 2025)
